The record followed here is article PMC9734383 (2022).

“And” between values parts separate entries of the source, which are not always exact repeats. Equal values may be shown once.

Common to all, as to experiment: BLI
In general terms: Biolayer interferometry detects binding as a change in optical thickness at a sensor tip.

For assay [1], the target named is H18 HA (recombinant HA of the panel) (influenza A virus, bat H18N11 (strain …)).
Assay [2] addresses H4 HA (recombinant HA of the panel) (influenza A virus (strain  in …)).
The target in assay [3] is H3 HA (recombinant HA of the panel) (influenza A virus (strain  in …)).
The target of assay [4] is H9 HA (recombinant HA of the panel) (influenza A virus (strain  in …)).
For assay [5], the target named is H8 HA (recombinant HA of the panel) (influenza A virus (strain  in …)).
The target of assay [6] is H1 HA (recombinant HA of the panel) (influenza A virus (strain  in …)).
The target of assay [7] is H5 HA (recombinant HA of the panel) (influenza A virus (strain  in …)).
Assay [8] addresses H10 HA (recombinant HA of the panel) (influenza A virus (strain  in …)).
The target of assay [9] is H17 HA (recombinant HA of the panel) (influenza A virus, bat H17N10 (strain …)).
The target of assay [10] is H14 HA (recombinant HA of the panel) (influenza A virus (strain  in …)).
Assay [11] addresses H11 HA (recombinant HA of the panel) (influenza A virus (strain  in …)).
The target in assay [12] is H15 HA (recombinant HA of the panel) (influenza A virus (strain  in …)).
For assay [13], the target named is H1-HA (A/swine/Guangdong/104/2013) (influenza A virus …).
For assay [14], the target named is H6 HA (recombinant HA of the panel) (influenza A virus (strain  in …)).
For assay [15], the target named is H12 HA (recombinant HA of the panel) (influenza A virus (strain  in …)).

B1: PN-SIA28 Fab (Fab, V domains shown)
VH: QVQLVESGGGVVQPGRSLRLSCAASGFPFSSYGMHWVRQAPGKGLEWVAGVSYDGSYKYYADSVKGRFTISRDSSKSTLYLQMNSLRPEDTAVYYCARPSAIFGIYIILNGLDVWGQGTTVTVSS
VL: EIVLTQSPSSVSASVGDRVTITCRATQGISSWLAWYQQKPGKPPKLLIFGASSLQSGVPSRFSGSGSGTDFTLTISSLQPEDFATYFCQQAHSFPLTFGGGTKVEIK
With B1, the Kd (usually the concentration at which binding is half-saturated) in assay [1] came out at 40.2 nM; in assay [2], 201 nM; in assay [3], 144 nM; in [4], 34.3 nM; in assay [5], 36 nM; in assay [6] it was 0.174 nM. Moreover, the Kd was 6.3 nM and 6.79 nM in assay [7]; 1160 nM in assay [8]; 208 nM in [9]; 171 nM in [10]; 682 nM in assay [11]; 2380 nM in [12]. Also, the Kd in [13] was found to be 0.26 nM; in assay [14], 66.8 nM; in assay [15], 14900 nM.
